Source: paper PMC12136000

Biological target: FLAG-tagged eIF3d (wild-type eIF3D-FLAG) (UniProt O15371)
Assay: co-IP; HeLa lysate (50 mM Tris pH7.5, 150 mM NaCl, 1% Triton-X, Benzonase) on anti-flag-beads for 2 h at 4 °C, three washes, western blot; cells treated for 2 h with DMSO or with 3 µM of the CK2 inhibitor CX-5011 before lysis

UniProt O15371, sequence (O15371 whole entry): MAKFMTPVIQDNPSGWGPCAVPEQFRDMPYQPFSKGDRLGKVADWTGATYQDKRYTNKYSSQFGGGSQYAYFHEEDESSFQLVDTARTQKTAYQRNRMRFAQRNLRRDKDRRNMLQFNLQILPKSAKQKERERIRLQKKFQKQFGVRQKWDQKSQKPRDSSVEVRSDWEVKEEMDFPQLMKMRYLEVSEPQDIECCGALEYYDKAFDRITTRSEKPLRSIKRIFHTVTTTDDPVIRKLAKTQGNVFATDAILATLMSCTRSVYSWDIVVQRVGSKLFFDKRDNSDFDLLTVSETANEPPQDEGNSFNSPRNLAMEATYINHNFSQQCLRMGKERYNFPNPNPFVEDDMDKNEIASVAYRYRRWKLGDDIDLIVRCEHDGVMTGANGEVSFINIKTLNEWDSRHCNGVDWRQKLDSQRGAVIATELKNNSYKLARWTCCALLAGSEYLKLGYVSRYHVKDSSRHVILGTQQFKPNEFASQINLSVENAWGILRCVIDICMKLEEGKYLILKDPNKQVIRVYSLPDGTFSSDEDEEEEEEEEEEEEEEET

For “eIF4A (from UniProt P60842 1-406) (natural protein)”, which decrease of co-precipitation (IP relative to input) after the CK2 inhibitor CX-5011 is on record?
The decrease of co-precipitation (IP relative to input) after the CK2 inhibitor CX-5011 was 37 % decrease.
